Reference: article doi:10.1101/2022.05.11.491581 (bioRxiv, 2022)

Columns and labels:
[1] = molecular target: LARGE1 without its CC domain (-CC), soluble secreted form (human) (UniProt O95461); experiment: mass photometry
[2] = molecular target: LARGE1 without its CC domain (-CC), soluble secreted form (human) (UniProt O95461); experiment: cryo-EM structure
[3] = molecular target: LARGE1 without its CC domain (-CC), soluble secreted form (human) (UniProt O95461); experiment: crystal structure
[4] = molecular target: the molecule itself; experiment: mass photometry

Row | stoichiometry N [1] | stoichiometry N [2] | stoichiometry N [3] | Molecule | stoichiometry N [4]
1 | 2 | 2 | 2 | LARGE1 without its CC domain (-CC), soluble secreted form (from UniProt O95461 96-276) (domain or fragment) | –
2 | – | – | – | LARGE1 with its coiled-coil (+CC) domain (residues 29-756), soluble secreted form (domain or fragment, human, UniProt O95461 29-756, looked up) LFSGSFEDGKPVSLSPLESQAHSPRYTASSQRERESLEVRMREVEEENRALRRQLSLAQGRAPSHRRGNHSKTYSMEEGTGDSENLRAGIVAGNSSECGQQPVVEKCETIHVAIVCAGYNASRDVVTLVKSVLFHRRNPLHFHLIADSIAEQILATLFQTWMVPAVRVDFYNADELKSEVSWIPNKHYSGIYGLMKLVLTKTLPANLERVIVLDTDITFATDIAELWAVFHKFKGQQVLGLVENQSDWYLGNLWKNHRPWPALGRGYNTGVILLLLDKLRKMKWEQMWRLTAERELMGMLSTSLADQDIFNAVIKQNPFLVYQLPCFWNVQLSDHTRSEQCYRDVSDLKVIHWNSPKKLRVKNKHVEFFRNLYLTFLEYDGNLLRRELFGCPSEADVNSENLQKQLSELDEDDLCYEFRRERFTVHRTHLYFLHYEYEPAADSTDVTLVAQLSMDRLQMLEAICKHWEGPISLALYLSDAEAQQFLRYAQGSEVLMSRHNVGYHIVYKEGQFYPVNLLRNVAMKHISTPYMFLSDIDFLPMYGLYEYLRKSVIQLDLANTKKAMIVPAFETLRYRLSFPKSKAELLSMLDMGTLFTFRYHVWTKGHAPTNFAKWRTATTPYRVEWEADFEPYVVVRRDCPEYDRRFVGFGWNKVAHIMELDVQEYEFIVLPNAYMIHMPHAPSFDITKFRSNKQYRICLKTLKEEFQQDMSRRYGFAALKYLTAENNS | 2
